Test results from article PMC5449587 (Nucleic Acids Research, 2017).

Target: the molecule itself
Assay: crystal structure

B1: Burkholderia thailandensis deoxyribonuclease II (enzyme)
chain: MAISPRDEQNRSVDLWFAYKVPKLTKDADSDSASGYEYVYYDRQVGAVQKSPNLMNDPKGALFYTLDSVFGDPGDTTGWILYNDEMPADANRSNNATLGHTKGVIAFDIASSSALWLLHSWPKYASPSVPGVPTPLYGQTFLCLSLDLATAGKLAAQMALHQQPQVYLPRTGGLDHTSPLYALTQPLNASAPGDSDSLDFKTRGGVPFKVIAKNRKWGKDFWNDLVGPTLKADMYVETWIRGKIPPVLDSDGVHKTYDIKFIDLRKLGAPWAWPETQDHAKWGITTTDNWVCVGDINRMVTQEKRGGGTIAFQDPKLWKALCETDLIIPPPGKTDAQARAMIRKTHEPAE
**Q.** Does B1 bind?
**A.** binds
